Target: T1, HER2-DIVMP (HER2 domain IV model receptor) domain IV fragment (Homo sapiens, UniProt P04626)
T1 chain: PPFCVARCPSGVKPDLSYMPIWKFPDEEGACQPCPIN
Assay: fluorescence spectroscopy titration

B1: A9-PEG-A9 dimer (peptide)
chain: QDVNTAVAW
modifications: not fully specified; two A9 chains N-terminally linked via PEG (1 kDa), C-terminal amide; HER2-DIVMP is a synthetic two-chain disulfide-linked peptide
Kd: 5.7 nM

From publication PMC12406181 (2025)
